From PMC7334207, “Select amino acids in DGCR8 are essential for the UGU-pri-miRNA interaction and processing” (Communications Biology, 2020)
Changes are numbered by the printed parent chain.

T1: G478del-mut1 (Homo sapiens, UniProt Q8WYQ5 285-478, W461A;A462G;E463Q;del370-429)
T1 sequence: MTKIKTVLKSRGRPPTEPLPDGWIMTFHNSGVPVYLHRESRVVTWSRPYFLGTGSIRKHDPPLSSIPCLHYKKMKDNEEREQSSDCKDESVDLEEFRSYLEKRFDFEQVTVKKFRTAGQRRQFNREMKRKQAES

T2: G478 (Rhed) (Homo sapiens, UniProt Q8WYQ5 285-478)
T2 sequence: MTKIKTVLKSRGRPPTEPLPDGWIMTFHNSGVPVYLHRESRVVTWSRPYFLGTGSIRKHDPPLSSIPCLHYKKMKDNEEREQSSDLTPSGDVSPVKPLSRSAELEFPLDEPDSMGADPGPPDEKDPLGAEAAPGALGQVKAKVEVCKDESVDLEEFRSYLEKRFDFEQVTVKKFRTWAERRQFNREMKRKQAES

T3: G478del WT (Homo sapiens, UniProt Q8WYQ5 285-478, del370-429)
T3 sequence: T1 sequence with A117W, G118A, Q119E

T4: G478del WT-mut1 hybrid dimer (Homo sapiens, UniProt Q8WYQ5;Q8WYQ5 285-369+430-478;285-369+430-478, internal_change;W461A;A462G;E463Q;internal_change)
T4 sequence 1: T1 sequence with A117W, G118A, Q119E
T4 sequence 2: T1 sequence

B1: G460del, G478del with the 461–478 region deleted (domain or fragment, human, UniProt Q8WYQ5 285-460, looked up)
chain: MTKIKTVLKSRGRPPTEPLPDGWIMTFHNSGVPVYLHRESRVVTWSRPYFLGTGSIRKHDPPLSSIPCLHYKKMKDNEEREQSSDCKDESVDLEEFRSYLEKRFDFEQVTVKKFRT
notes: Lost its hemin-associating ability; source: E. coli, purified (as G478 and its variants)
B2: G478del, G478 (DGCR8 amino acids 285–478) with the 370–429 region deleted (domain or fragment, human, UniProt Q8WYQ5 285-478, looked up)
chain: T1 sequence with A117W, G118A, Q119E
notes: Associated with hemin; Theoretical dimer mass ~30 kDa as printed; also called G478del–WT; source: E. coli, purified (as described for G478)
B3: G478del-mut1, G478del with AGQ in the 461–463 region instead of WAE (domain or fragment, human, UniProt Q8WYQ5 285-478, looked up)
chain: T1 sequence
notes: Associated with hemin; source: E. coli, purified (as described for G478del)
B4: G478, Rhed (RNA-binding heme domain) of DGCR8, amino acids 285–478 (domain or fragment, human, UniProt Q8WYQ5 285-478, looked up)
chain: T2 sequence
notes: Associated with hemin; also called Rhed dimer; G478 dimer; source: E. coli, purified (as described for the G4 fragments: Ni2+-agarose, SP-sepharose; then Superdex 200)

Legend:
G478del-mut1 = molecular target: T1, G478del-mut1; assay: EMSA; 50 mM Tris-HCl pH 7.5, 250 mM NaCl, 10% glycerol, 0.2 mg/ml BSA, 1 mM DTT, 2 mM EDTA; 1 uM RNA in 10 uL; on ice 60 min; 4% native PAGE at 4 C, ethidium bromide; conditions: protein: recombinant; tags: 10xHis; chain copies: 2; hairpin
G478 (Rhed) = molecular target: T2, G478 (Rhed); assay: as above; conditions: protein: recombinant; (purified as for G4; theoretical dimer 44 kDa implies no GFP); chain copies: 2; hairpin
G478del WT = molecular target: T3, G478del WT; assay: as above; conditions: protein: recombinant; chain copies: 2; hairpin
[1] = molecular target: T4, G478del WT-mut1 hybrid dimer; assay: as above; conditions: protein: recombinant; tags: 10xHis on mut1 subunit; protein G on WT subunit removed by HRV 3C; copies: 1;1; hairpin
[2] = molecular target: the molecule itself; assay: SEC-MALS; molecular mass of the purified protein estimated with a Multi-Angle Light Scattering detector (miniDAWN TREOS, Wyatt Technology Corporation); compared with the theoretical mass of a dimer

| Binder | Kd (G478del-mut1) | Kd (G478 (Rhed)) | Kd (G478del WT) | Kd [1] | stoichiometry N [2] |
| --- | --- | --- | --- | --- | --- |
| ACUGGAAGCUGUGAAAGAUGGGCUUUCAGU (structured_RNA) [10L10_UGU] | 9.03 ± 0.61 µM | 3.43 ± 0.29 µM | 5.73 ± 0.39 µM | 5.43 ± 0.46 µM | – |
| B1 | – | – | – | – | 2 |
| B2 | – | – | – | – | 2 |
| B3 | – | – | – | – | 2 |
| ACUGGAAGCCAAGAAAGAUGGGCUUUCAGU (structured_RNA) [10L10_noUGU] | 13.8 ± 0.39 µM | 8.57 ± 0.96 µM | 16.8 ± 1.48 µM | 11.5 ± 0.77 µM | – |
| B4 | – | – | – | – | 2 |
